B1: cMAC BL2: shDNA construct in pLKO.1 lentiviral vector, target sequence gcctttgttagatctatca (SEQ ID NO: 105) (nucleic acid)
sense: CCGGGCCTTTGTTAGATCTATCATTCAAGAGATGATAGATCTAACAAAGGCTTTTT
antisense: AATTAAAAAGCCTTTGTTAGATCTATCATCTCTTGAATGATAGATCTAACAAAGGC
B2: cMAC BL9: shDNA construct in pLKO.1 lentiviral vector, target sequence caggaatgtcctccaacca (SEQ ID NO: 126) (nucleic acid)
sense: CCGGCAGGAATGTCCTCCAACCATTCAAGAGATGGTTGGAGGACATTCCTGTTTTT
antisense: AATTAAAAACAGGAATGTCCTCCAACCATCTCTTGAATGGTTGGAGGACATTCCTG
B3: cMAC BL3: shDNA construct in pLKO.1 lentiviral vector, target sequence catctttgttggcctacga (SEQ ID NO: 108) (nucleic acid)
sense: CCGGCATCTTTGTTGGCCTACGATTCAAGAGATCGTAGGCCAACAAAGATGTTTTT
antisense: AATTAAAAACATCTTTGTTGGCCTACGATCTCTTGAATCGTAGGCCAACAAAGATG
B4: cMAC BL6: shDNA construct in pLKO.1 lentiviral vector, target sequence actagaatgttgacctcga (SEQ ID NO: 117) (nucleic acid)
sense: CCGGACTAGAATGTTGACCTCGATTCAAGAGATCGAGGTCAACATTCTAGTTTTTT
antisense: AATTAAAAAACTAGAATGTTGACCTCGATCTCTTGAATCGAGGTCAACATTCTAGT
B5: cMAC BL5: shDNA construct in pLKO.1 lentiviral vector, target sequence gatttaagcctccctaaga (SEQ ID NO: 114) (nucleic acid)
sense: CCGGGATTTAAGCCTCCCTAAGATTCAAGAGATCTTAGGGAGGCTTAAATCTTTTT
antisense: AATTAAAAAGATTTAAGCCTCCCTAAGATCTCTTGAATCTTAGGGAGGCTTAAATC
B6: cMAC BL7: shDNA construct in pLKO.1 lentiviral vector, target sequence ccgggtttccctattccaa (SEQ ID NO: 120) (nucleic acid)
sense: CCGGCCGGGTTTCCCTATTCCAATTCAAGAGATTGGAATAGGGAAACCCGGTTTTT
antisense: AATTAAAAACCGGGTTTCCCTATTCCAATCTCTTGAATTGGAATAGGGAAACCCGG
B7: cMAC BL8: shDNA construct in pLKO.1 lentiviral vector, target sequence gtcaggtgccacatgagaa (SEQ ID NO: 123) (nucleic acid)
sense: CCGGGTCAGGTGCCACATGAGAATTCAAGAGATTCTCATGTGGCACCTGACTTTTT
antisense: AATTAAAAAGTCAGGTGCCACATGAGAATCTCTTGAATTCTCATGTGGCACCTGAC
B8: CD29 shDNA construct: negative control shDNA construct targeting CD29, target sequence ggtagaaagtcgggacaaa (SEQ ID NO: 132) (nucleic acid)
sense: CCGGGGTAGAAAGTCGGGACAAATTCAAGAGATTTGTCCCGACTTTCTACCTTTTT
antisense: AATTAAAAAGGTAGAAAGTCGGGACAAATCTCTTGAATTTGTCCCGACTTTCTACC
B9: cMAC BL4: shDNA construct in pLKO.1 lentiviral vector, target sequence ggttatctgttgcccaaga (SEQ ID NO: 111) (nucleic acid)
sense: CCGGGGTTATCTGTTGCCCAAGATTCAAGAGATCTTGGGCAACAGATAACCTTTTT
antisense: AATTAAAAAGGTTATCTGTTGCCCAAGATCTCTTGAATCTTGGGCAACAGATAACC
B10: cMAC MB4: shDNA construct in pLKO.1 lentiviral vector, target sequence ccttgggcuggcactcttatt (SEQ ID NO: 129) (nucleic acid)
sense: CCGGCCTTGGGCUGGCACTCTTATTCAAGAGATAAGAGTGCCAGCCCAAGGTTTTT
antisense: AATTAAAAACCTTGGGCTGGCACTCTTATCTCTTGAATAAGAGTGCCAGCCCAAGG

How the values were obtained:
Type in all cases: cell-based
[1] = test system: NFAT-1; test: NFAT-1 translocation in Jurkat cells; conditions: PMA alone
Procedure: (§1) Fixing and staining Jurkat cells, NFAT translocation assay: Following treatment Jurkat cells were attached to 96 well plates using the Becton Dickinson Cell-Tak cell adhesive. The suspension cells were centrifuged (800×G) for 5 min onto precoated plates (as per manufacturer's instruction). The attached cells were permeabilized in 3.7% formaldehyde, 0.5% Triton X100 and washed twice with wash buffer (0.5% Triton X100 in PBS) and blocked with 2% BSA, 0.1% Triton X100 in PBS. The cells were incubated in primary antibodies NFAT-1 (Cellomics K01-0011-1 diluted 1:100) and NFAT-2 (Affinity Bioreagents MA3-024 diluted 1:250) in blocking buffer for 1 hour at room temperature. Cells were washed twice with wash buffer and incubated with secondary goat anti-mouse IgG conjugated to Alexa Fluor 488 GαM (Cellomics K01-0011-1 reagents antibody diluted 1:2000, and Hoechst dye 1:2000) in blocking buffer. Cells were washed once with PBS and imaged. […]
(§2) The effect of cMAC on the nuclear translocation of the transcription factor NFAT and its dependence on calcineurin was also examined. […] While NFAT-1 and NFAT-2 were detected in the cytoplasm of control virus infected cells, both isoforms of NFAT were localized primarily in the nucleus in a large proportion of cMAC transduced cells. […]

[2] = test system: NFAT-2; test: NFAT-2 translocation in Jurkat cells; conditions: PMA alone
Procedure: as §1, §2

[3] = test system: IL-2; test: Jurkat T-cell activation, IL-2 protein (ELISA); conditions: Jurkat cells, PMA alone
Procedure: (§3) Transduction and sensitization of Jurkat cells: Jurkat cells were maintained in RPMI 1640 (GIBCO 21870-076) 10% FC1 Fetal clone1 (Hyclone), 1% Pen/Strep, 1% Glutamax1, 0.1% beta mercaptoethanol. Prior to transduction the cells were switched to transduction media which contains: RPMI 1640 (above) fortified with 2.25 g glucose 1% antibiotic/antimycotic, 1% 1M Hepes (Gibco), 1% 100 mM sodium pyruvate, 10 ml 7.5% Sodium Bicarbonate 10% Fetal Clone serum 1. Cells were seeded 5×104 in transduction media combined with virus (volume in legend) and 4 ug/ml polybrene final concentration and centrifuged at ˜800×g for 3 hrs. For activation of ICOS and IL-2 expression experiments cells were transduced with 50 μl of retroviral supernatant (QL-GW-Final-Kan) and 48 hours post transduction the media was fortified with PMA (phorbol 12-myristate 13-acetate) 10 ng/ml and 24 hours after addition the cells or media were removed for ICOS or IL-2 measurements. […]
(§4) Analysis of ICOS surface marker and IL-2 protein expression: 1.5 uL of ICOS-PE (BD-Parmingen 557802) was combined with ˜1×10^6 Jurkat cells and incubated on ice for 30 min. Cells were centrifuged ˜500×g 5 min and washed 2×PBS and the mean channel flourescence determined using flow cytometry (BD FACSCaliber). IL-2 levels were measured using the QuantiGlo IL-2 Elisa kit (R&D Systems).
(§5) We assessed the role of TRPV6 and cMAC in a T-cell activation screen. […]

[4] = test system: ICOS; test: Jurkat T-cell activation, ICOS surface marker expression; conditions: Jurkat cells, PMA alone
Procedure: as §3, §4, §5

[5] = test system: cMAC mediated translocation of TORC1-eGFP; test: TORC1-eGFP translocation in HeLa:TORC1-eGFP cells transduced with human cMAC; conditions: EGTA in the medium; reversed by excess calcium (data not shown)
[6] = test system: IL-2; test: IL-2 production of TCR/CD28 activated Jurkat T-cells after viral shDNA transduction; conditions: TCR/CD28 activated 6 days post transduction; for Average IL-2 % inhibition: pLKO.1 shDNA, puromycin selected, IL-2 normalized to viable cells
Procedure: as §4
Jurkat cell activation for shDNA inhibition studies: To assess shDNA efficacy, Jurkat cells (15000) were transduced with 10 μL LKO virus as described and 24 hours post transduction the media was fortified with puromycin (see below). Six days post transduction half the cells were activated with antibodies targeting TCR and CD28 receptors bound to a 96 well plate surface and incubated overnight and the media was collected for IL-2 determination. The remaining cells were used to determine the fraction of viable cells in each well using the Cell Titer-Glo assay (see below).
The activation plates were prepared by coating goat anti-mouse IgG, Fcγ fragment specific antibody (Jackson ImmunoResearch Laboratories) 55 μl per well at a final concentration of 10 μg/ml in PBS. The plates were incubated 3 hours at room temperature. Excess IgG was removed and plates were blotted. Plates were blocked with 300 μL 2% BSA/PBS (BSA, Fraction V lyophilizate, Roche) and incubated for 2 hours at room temperature. The plates were washed 3 times with PBS and stimulating antibodies anti-TCR 0.01 ug/ml (BD Biosciences 347770 clone WT31) and anti-CD28 0.3 ug/ml (BD Pharmingen 555725) in 2% BSA/PBS final volume 50 μL/well. Plates were incubated overnight and washed 3 times with PBS prior to addition of cells for activation.
(§6) Puromycin selection of shDNA transduced Jurkat cells and normalization for cell survival: The LKO viral vector used in this study contains a puromycin selection marker. Jurkat cells infected with shDNA constructs (LKO.1) were put under puromycin selection 24 hrs post infection by addition of puromycin (2 μg/ml) and maintained for the duration of the experiment (6 days post infection, 3 days for mRNA quantitation). To account for differences in cell number after puromycin selection (possibly due to variations in viral titer), we adopted a cellular ATP assay which is proportional to cell number (Cell Titer-Glo Luminescent Assay Kit, Promega). The assay was performed as per the manufacturer's instruction. A standard curve was generated for each cell type to determine linearity for the assay. The IL-2 concentrations were normalized to cell number by dividing the calculated IL-2 concentration by the rLU values for the cell titer-glo assay, which is equivalent to IL-2 expression/cell number. The mRNA expression levels were determined 3 days post infection.
To assess whether cMAC was essential for T-cell activation, we designed several shDNA constructs targeting cMAC. In these experiments Jurkat T-cells were transduced with viral constructs targeting cMAC or another unrelated gene. 6 days post transduction, the cells were activated with TCR/CD28 antibodies and the level of cMAC mRNA and IL-2 secreted into the media was measured. […] FIG. 10.

[7] = test system: cMAC mRNA; test: cMAC mRNA knockdown in shDNA transduced Jurkat cells; conditions: for Average cMAC mRNA % Inhib.: 3 days post infection (2 days post puromycin selection)
Procedure: as §6
Determination of mRNA knockdown for cMAC: Jurkat mRNA expression levels were determined 3 days post infection (2 days post puromycin selection).
To determine the specificity of the shDNA construct, the reduction of cMAC mRNA was measured for each construct (Table 8) and compared to the inhibition of IL-2 observed. The pGL3-Luc and CD29 shDNA constructs served as negative controls. […] In those instances it may be that the shDNA is causing decreases in the expression of cMAC protein through microRNA effects. Thus, it appears that with the exception of 2 constructs (BL6 and BL8) the phenotypically active IL-2 constructs correlate with reduced cMAC mRNA levels.

[8] = test system: CD29 mRNA; test: CD29 mRNA knockdown by shDNA construct

| Molecule | Average IL-2 % inhibition [6] [%] | Average cMAC mRNA % Inhib. [7] [%] | also measured |
| --- | --- | --- | --- |
| CCCCCCCCCCCCCC(=O)O[C@@H]1[C@@H](C)[C@@]2(O)[C@@H](C=C(CO)C[C@]3(O)C(=O)C(C)=C[C@@H]23)[C@@H]2C(C)(C)[C@]12OC(C)=O [PMA, phorbol 12-myristate 13-acetate] |  |  | effect on NFAT-1 translocation [1]: no effect; effect on NFAT-2 translocation [2]: no effect; upregulation of IL-2 [3]: did not upregulate; upregulation of ICOS expression levels [4]: did not upregulate |
| O=C(O)CN(CCOCCOCCN(CC(=O)O)CC(=O)O)CC(=O)O [EGTA] |  |  | effect on cMAC induced nuclear TORC1 translocation [5]: blocked |
| B1 | 75.5 | 72.6 |  |
| B2 | 37.8 | 54.8 |  |
| B3 | 52.1 | 30.1 |  |
| B4 | −9.34 | 35.8 | IL-2 reduction [6]: without any IL-2 reduction; Average cMAC mRNA % Inhib. ([7]; listed as BL6): 36% |
| B5 | 72.2 | 67.0 |  |
| B6 | 40.8 | 66.4 |  |
| B7 | 8.03 | 70.1 | IL-2 reduction [6]: without any IL-2 reduction; Average cMAC mRNA % Inhib. ([7]; listed as BL8): 70% |
| B8 |  |  | effect on cMAC message [7]: no effect; reduction of CD29 mRNA [8]: potently reduced CD29 mRNA |
| B9 | 65.7 | 56.2 |  |
| B10 | 78.9 | 65.9 |  |

— patent US20090136506A1, “Conserved Membrane Activator of Calcineurin (CMAC), a Novel Therapeutic Protein and Target” (priority 2005, published 2009)
